We go through two molecules from PMC9638722, “Light regulates xylem cell differentiation via PIF in Arabidopsis”.

Series [1] deals with T1, PIF4 (Arabidopsis thaliana, UniProt Q8W2F3 1-430).
T1 sequence: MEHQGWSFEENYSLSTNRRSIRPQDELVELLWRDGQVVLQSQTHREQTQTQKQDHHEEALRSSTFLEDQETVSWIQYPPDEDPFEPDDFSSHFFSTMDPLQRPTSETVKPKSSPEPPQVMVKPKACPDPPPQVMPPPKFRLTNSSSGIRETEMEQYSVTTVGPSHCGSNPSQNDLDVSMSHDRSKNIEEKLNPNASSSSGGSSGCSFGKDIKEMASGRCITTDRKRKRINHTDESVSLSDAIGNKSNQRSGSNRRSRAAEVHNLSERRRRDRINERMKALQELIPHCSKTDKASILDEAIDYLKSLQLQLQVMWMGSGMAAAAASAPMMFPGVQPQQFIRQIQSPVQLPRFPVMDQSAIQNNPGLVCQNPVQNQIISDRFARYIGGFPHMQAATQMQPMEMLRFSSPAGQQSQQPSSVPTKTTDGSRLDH
In words: EMSA; EMSA according to Martinez et al. 2018 with minor modifications, LightShift chemiluminescent kit; buffer, salt, pH and temperature not stated. The note with it: protein: ivt; label: 5' biotin (probe); blunt.

Series [2] addresses T1, PIF4. In words: EMSA; positive control; EMSA according to Martinez et al. 2018 with minor modifications, LightShift chemiluminescent kit; buffer, salt, pH and temperature not stated. The note with it: protein: ivt; label: 5' biotin; blunt.

B1: pCLE44 PBE1 WT (dsDNA)
DNA 1: GTAATATAGTGAGGTGGTCACATGTAATGGATTCAATCCAC
DNA 2: GTGGATTGAATCCATTACATGTGACCACCTCACTATATTAC
Turning to B1, the binding result in series [1] is “binds”.

B2: pPIL1 G-box (dsDNA)
DNA 1: TAATGGCGTGAAGGTTCTTTCCGCTCACGTGGGCCTTTTG
DNA 2: CAAAAGGCCCACGTGAGCGGAAAGAACCTTCACGCCATTA
For the molecule B2, the binding result in series [2] is given as “binds”.
